Measured values reported in article PMC13123425.

Target: T1, human VWF-A2 fragment
T1 chain: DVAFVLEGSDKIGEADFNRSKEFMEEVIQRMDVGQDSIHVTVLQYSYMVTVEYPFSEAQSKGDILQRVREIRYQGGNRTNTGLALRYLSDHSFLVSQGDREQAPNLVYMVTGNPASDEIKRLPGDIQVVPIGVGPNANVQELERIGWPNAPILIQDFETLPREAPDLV
Assay: microscale thermophoresis
Set-up: unit not given beside the values
Conditions: chain shown with the change;; parent: est. 6.2e-9; read off a plot

EC50: 2.3e-09
B1: human recombinant wild-type complement factor H, P08603 W1183R (protein)
chain: EDCNELPPRRNTEILTGSWSDQTYPEGTQAIYKCRPGYRSLGNVIMVCRKGEWVALNPLRKCQKRPCGHPGDTPFGTFTLTGGNVFEYGVKAVYTCNEGYQLLGEINYRECDTDGWTNDIPICEVVKCLPVTAPENGKIVSSAMEPDREYHFGQAVRFVCNSGYKIEGDEEMHCSDDGFWSKEKPKCVEISCKSPDVINGSPISQKIIYKENERFQYKCNMGYEYSERGDAVCTESGWRPLPSCEEKSCDNPYIPNGDYSPLRIKHRTGDEITYQCRNGFYPATRGNTAKCTSTGWIPAPRCTLKPCDYPDIKHGGLYHENMRRPYFPVAVGKYYSYYCDEHFETPSGSYWDHIHCTQDGWSPAVPCLRKCYFPYLENGYNQNYGRKFVQGKSIDVACHPGYALPKAQTTVTCMENGWSPTPRCIRVKTCSKSSIDIENGFISESQYTYALKEKAKYQCKLGYVTADGETSGSITCGKDGWSAQPTCIKSCDIPVFMNARTKNDFTWFKLNDTLDYECHDGYESNTGSTTGSIVCGYNGWSDLPICYERECELPKIDVHLVPDRKKDQYKVGEVLKFSCKPGFTIVGPNSVQCYHFGLSPDLPICKEQVQSCGPPPELLNGNVKEKTKEEYGHSEVVEYYCNPRFLMKGPNKIQCVDGEWTTLPVCIVEESTCGDIPELEHGWAQLSSPPYYYGDSVEFNCSESFTMIGHRSITCIHGVWTQLPQCVAIDKLKKCKSSNLIILEEHLKNKKEFDHNSNIRYRCRGKEGWIHTVCINGRWDPEVNCSMAQIQLCPPPPQIPNSHNMTTTLNYRDGEKVSVLCQENYLIQEGEEITCKDGRWQSIPLCVEKIPCSQPPQIEHGTINSSRSSQESYAHGTKLSYTCEGGFRISEENETTCYMGKWSSPPQCEGLPCKSPPEISHGVVAHMSDSYQYGEEVTYKCFEGFGIDGPAIAKCLGEKWSHPPSCIKTDCLSLPSFENAIPMGEKKDVYKAGEQVTYTCATYYKMDGASNVTCINSRWTGRPTCRDTSCVNPPTVQNAYIVSRQMSKYPSGERVRYQCRSPYEMFGDEEVMCLNGNWTEPPQCKDSTGKCGPPPPIDNGDITSFPLSVYAPASSVEYQCQNLYQLEGNKRITCRNGQWSEPPKCLHPCVISREIMENYNIALRRTAKQKLYSRTGESVEFVCKRGYRLSSRSHTLRTTCWDGKLEYPTCAKR
